From patent US20060121580A1

Assays:
[1] = target: SARS-CoV strain Frankfurt 1 (infectious virus); assay: cell-based or functional assay
[2] = target: SARS-CoV strain Frankfurt 2 (infectious virus); assay: cell-based or functional assay
[3] = target: fetal bovine serum (FBS), 10% preparation; assay: phage ELISA on coated 10% FBS
[4] = target: SARS-CoV preparation (Frankfurt 1 strain); assay: phage ELISA on coated SARS-CoV preparation, plate 2 (no phage antibody 0.211)

B1: bivalent scFv pyBi03-012C02 (scFv)
scFv: AMAQVQLVQSGAEVKKPGASVKVSCKASGYTFTSYGISWVRQAPGQGLEWMGWISAYNGNTNYAQKLQGRVTMTTDTSTSTAYMELSSLRSDDTAVYYCARMFRKSSFDSWGQGTLVTVSRGGGGSGGGGSGGGGSSELTQDPAVSVALGQTVRITCQGDSLRSYYASWYQQKPGQAPVLVIYGKNNRPSGIPDRFSGSSSGNTASLTITGAQAEDEADYYCNSRDSSGNHVVFGGGTKLTVLGAAA
Binder B1 has a Neutralization titer for Frankfurt 1 strain (dilution factor) [1] of less than 20 and a Neutralization titer for Frankfurt 2 strain (dilution factor) [2] of less than 20.

B2: single-chain phage antibody SC03-012 (scFv)
scFv: B1 scFv
B2 was tested, and the OD492 nm [3] was 0.1 OD492 nm.

B3: bivalent scFv pyBi03-006C02 (scFv)
scFv: SMAEVQLVESGGGLVQPGGSLRLSCAASGFTFSGYPMHWVRQAPGKGLEWVAVISYDGSNKYYADSVKGRFTISRDNSKNTLYLQMNSLRAEDTAVYYCAKDGSPRTPSFDYWGQGTLVTVLEGTGGSGGTGSGTGTSELDIQMTQSPHSLSASVGDRVTITCRASQGISNYLAWYQQKPGKVPKLLIYAASTLQSGVPSRFSGSGSGTDFTLTISSLQPEDVGVYYCQQRFRTPVTFGQGTKLEIKRAAA
In the case of B3, the Neutralization titer for Frankfurt 1 strain (dilution factor) [1] is reported as less than 20 and the Neutralization titer for Frankfurt 2 strain (dilution factor) [2] is reported as less than 20.

B4: single-chain phage antibody SC03-006 (scFv)
scFv: B3 scFv
Binder B4 has an OD492 nm [3] of 0.086 OD492 nm.

B5: bivalent scFv pyBi03-015C02 (scFv)
scFv: AMAEVQLVESGGGVVRPGGSLRLSCAASGFTFDDYGMSWVRQAPGKGLEWVSGINWNGGSTGYADSVKGRFTISRDNAKNSLYLQMNSLRAEDTAVYYCARGLSLRPWGQGTLVTVSRGGGGSGGGGSGGGGSSELTQDPAVSVALGQTVRITCQGDSLRSYYASWYQQKPGQAPVLVIYGKNNRPSGIPDRFSGSSSGNTASLTITGAQAEDEADYYCNSRDSSGNHVVFGGGTKLTVLGAAA
Binder B5 has a Neutralization titer for Frankfurt 1 strain (dilution factor) [1] of less than 20 and a Neutralization titer for Frankfurt 2 strain (dilution factor) [2] of less than 20.

B6: single-chain phage antibody SC03-015 (scFv)
scFv: B5 scFv
In the case of B6, the OD492 nm [3] is reported as 0.077 OD492 nm.

B7: SC03-026 (scFv)
scFv: AMAQVQLVQSGGGLVQPGGSLRLSCAASGFTFSSYAMHWVRQAPGKGLEYVSGISSNGGSTYYANSVKGRFTISRDNSKNTLYLQMGSLRAEDMAVYYCARTTNRAFDIWGQGTMVTVSSGTGGSGGTGSGTGGSTDIQMTQSPDSLAVSLGERATINCKSSQSILYSSNSKNYLGWYQQKPGQPPKLLIYWASTRESGVPDRFSGSGSGTDFTLTISSLQAEDVAVYYCQQYYSTPYSFGQGTKVEIKRAA
B7 was tested, and the OD492 nm [4] was 1.07 OD492 nm.
